First the molecules themselves.
B1: Yersinia enterocolitica urease ureC protein (enzyme)
chain: MPQISRQEYAGLFGPTTGDKIRLGDTNLFIEIEKDLRGYGEESVYGGGKSLRDGMGANNHLTRDNGVLDLVITNVTIVDARLGVIKADVGIRDGKIAGIGKSGNPGVMDGVTPGMVVGVSTDAISGEHLILTAAGIDSHIHLISPQQAYHALSNGVATFFGGGIGPTDGTNGTTVTPGPWNIRQMLRSVEGLPVNVGILGKGNSYGRGPLLEQAIAGVVGYKVHEDWGATANALRHSLRMADEMDIQVSVHTDSLNECGYVEDTIDAFEGRTIHTFHTEGAGGGHAPDIIRVASQPNVLPSSTNPTLPYGVNSQAELFDMIMVCHNLNPNVPADVSFAESRVRPETIAAENVLHDMGVISMFSSDSQAMGRVGENWLRVMQTANAMKASRGKLPEDAPGNDNFRVLRYVAKITINPAIAQGVSHVIGSVEVGKMADLVLWDPRFFGAKPKMVIKGGMINWAAMGDPNASLPTPQPVFYRPMFGAMGKTMQDTCVTFVSQAALDDGVKEKAGLDRQVIAVKNCRTISKHDLVRNDQTPNIEVDPETFAVKVDGVHATCEPIDTAAMNQRYFFG
modifications: carbamylated Lys222
notes: urease chain ureC of Yersinia enterocolitica; residues 2-327 and 335-572 were built in the cryo-EM model; Native enzyme purified from the bacterium, with two Ni2+ ions in the active site; also called α-subunit containing the active site; source: purified from Y. enterocolitica cultures (Sephacryl S-300, Mono Q, SEC)

Data set [1] deals with the molecule itself. Put plainly: cryo-EM structure; single-particle cryo-EM of purified urease at 0.39 mg/ml, frozen in a buffer of pH 7.0; tetrahedral (T) symmetry imposed; map at 1.98 Å; no substrate or inhibitor.
In data set [2] the target is B1. The description is as above. To be noted: both partners purified.

In the case of B1, in data set [1], the binding result was “binds”.

B2: Y. enterocolitica urease hetero-trimer formed by the three protein chains (ureA, ureB, ureC) (complex)
chain 1: MQLTPREVEKLMIYTLSDVAFKRKARGLKLNYPEAVSIITETAMEGARDGKSVEDVMKEASKVLTKDDVMDGVADLIPNVQVEAIFTDGSRLVTVHDPIK
chain 2: MSTKTNSTKATSEKTDSLKTNRGTKSSAGYSDQNIPLGGCILADTPITFNENKPVTKVKVRNTGDRPIQVGSHFHFFEANRALEFDRAAAYGKRLNISSTTAIRFEPGDETEVPLIPFGGKQTLYGFNNLVDGWTGEGVVPNSERPDKLEAIRRAAERGFKSSK
chain 3: MPQISRQEYAGLFGPTTGDKIRLGDTNLFIEIEKDLRGYGEESVYGGGKSLRDGMGANNHLTRDNGVLDLVITNVTIVDARLGVIKADVGIRDGKIAGIGKSGNPGVMDGVTPGMVVGVSTDAISGEHLILTAAGIDSHIHLISPQQAYHALSNGVATFFGGGIGPTDGTNGTTVTPGPWNIRQMLRSVEGLPVNVGILGKGNSYGRGPLLEQAIAGVVGYKVHEDWGATANALRHSLRMADEMDIQVSVHTDSLNECGYVEDTIDAFEGRTIHTFHTEGAGGGHAPDIIRVASQPNVLPSSTNPTLPYGVNSQAELFDMIMVCHNLNPNVPADVSFAESRVRPETIAAENVLHDMGVISMFSSDSQAMGRVGENWLRVMQTANAMKASRGKLPEDAPGNDNFRVLRYVAKITINPAIAQGVSHVIGSVEVGKMADLVLWDPRFFGAKPKMVIKGGMINWAAMGDPNASLPTPQPVFYRPMFGAMGKTMQDTCVTFVSQAALDDGVKEKAGLDRQVIAVKNCRTISKHDLVRNDQTPNIEVDPETFAVKVDGVHATCEPIDTAAMNQRYFFG
modifications: carbamylated Lys222
notes: urease chain ureA of Yersinia enterocolitica, as m1; residues 1-100 built; urease chain ureB of Yersinia enterocolitica, as m2; residues 31-162 built; urease chain ureC of Yersinia enterocolitica, as m3; residues 2-327 and 335-572 built; The asymmetric unit holds one copy each of ureA, ureB and ureC; Twelve such units form the holoenzyme, [[αβγ]3]4, with tetrahedral symmetry; also called basic …
Consider B2, for which the “stoichiometry N” value in data set [1] was 12.

B3: Yersinia enterocolitica urease ureA protein (natural protein)
chain: MQLTPREVEKLMIYTLSDVAFKRKARGLKLNYPEAVSIITETAMEGARDGKSVEDVMKEASKVLTKDDVMDGVADLIPNVQVEAIFTDGSRLVTVHDPIK
notes: urease chain ureA of Yersinia enterocolitica; all residues of ureA (1-100) were built in the cryo-EM model; Native enzyme purified from the bacterium; source: purified from Y. enterocolitica cultures (Sephacryl S-300, Mono Q, SEC)
For B3, the binding result in data set [2] and in data set [1] was “binds” in each case.

B4: Yersinia enterocolitica urease ureB protein (natural protein)
chain: MSTKTNSTKATSEKTDSLKTNRGTKSSAGYSDQNIPLGGCILADTPITFNENKPVTKVKVRNTGDRPIQVGSHFHFFEANRALEFDRAAAYGKRLNISSTTAIRFEPGDETEVPLIPFGGKQTLYGFNNLVDGWTGEGVVPNSERPDKLEAIRRAAERGFKSSK
notes: urease chain ureB of Yersinia enterocolitica; residues 31-162 were built in the cryo-EM model; the N-terminal extension was too disordered to be modelled; Native enzyme purified from the bacterium; source: purified from Y. enterocolitica cultures (Sephacryl S-300, Mono Q, SEC)
Regarding B4, the binding result in data set [2] and in data set [1] was “binds” each time.

As a reminder, the stoichiometry N is a count of units in the complex or per binding partner.

The values are drawn from paper PMC7547064, “High-resolution cryo-EM structure of urease from the pathogen Yersinia enterocolitica” (Nature Communications, 2020).
